Results on two molecules are retold here after patent publication US20160184454A1, “RAB7L1 INTERACTS WITH LRRK2 TO MODIFY INTRANEURONAL PROTEIN SORTING AND PARKINSON'S DISEASE RISK” (THE TRUSTEES OF COLUMBIA UNIVERSITY IN THE CITY OF NEW YORK, priority 2013, published 2016).

The subject of assay [1] is Drosophila dopamine neurons. Kind of assay: Surviving dopaminergic neurons in PPM1 and PPL1 clusters of Drosophila CNS mushroom bodies. It is filed as in vivo. The note with it: co-expression with LRRK2 G2019S.
Assay [2] has as its system rat primary cortical neurons. Kind of assay: Neurite length assay in transfected primary cortical neuron cultures. The note with it: for LRRK2 mutation-induced neurite length phenotype: co-transfection with LRRK2 G2019S (0.5 μg/well), test vector 1 μg/well. Format: cell-based. The text has this: As 5 candidate genes are present within the PARK16 locus (SLC45A3, NUCKS, RAB7L1, SLC41A1, and PM20D1), each of the genes were experimentally screened for a functional interaction with LRRK2 (FIG. 2A). A previously-described primary rat neuron in vitro culture model was used, in which transient expression of familial PD-associated LRRK2 G2019S or R1441C mutant alleles leads to a marked reduction in neurite process length (MacLeod et al., 2006). […] RAB7L1 is a small cytosolic GTPase, structurally distinct from RAB7 despite its name (also known as RAB29) (Shimizu et al., 1997). […] But the function of RAB7L1 in CNS neurons remains unknown. Orthologues of RAB7L1 in other organisms, including C. elegans Glo-1 and Drosophila melanogaster Lighloid, have been implicated in trafficking to lysosome-related organelles (Hermann et al., 2005) and in the regulation of neurite process length (Grill et al., 2007), reminiscent of LRRK2 mutant phenotypes (MacLeod et al., 2006). Thus this gene was of particular interest.
Sprague-Dawley rat or mouse PI primary dissociated cortical cultures were prepared and transfected essentially as described (Xia et al., 1996) with the following modifications: cells were plated at high density, approximately 250,000 cells/cm2, in 24-well plates with 500 ul medium/well. Culture medium used for plating cells was Neurobasal-A supplemented with 2% B-27 and 10% FBS. At 1 day after plating, medium was changed to reduced serum (1% FBS+added antimitotic agents: 70 μM uridine and 25 μM 5-fluorodeoxyuridine) and replaced weekly thereafter; for transfections no DMSO was added to the transfection mixture, cells were not subjected to glycerol shock, and a total of 3 μg plasmid DNA was used per well. Cells were fixed in 4% PFA and immunostained with mouse α-RAB7L1 (Santa Cruz, 1:100), and rabbit monoclonal α-LRRK2 (Michal J. Fox Foundation MJFF4, 1:100), then with appropriate fluorescent secondaries (Jackson, 1:1000-2000). Neurite length and neurite puncta (defined as swellings greater than 2 um in diameter) were counted for at least 20 neurons per condition. Mean puncta number per neuron was normalized to total average neurite length versus wild-type LRRK2 transfected cells. Fluorescent microscopy was performed using a Nikon TE 2000-S microscope and a Zeiss LSM510 Meta confocal microscope. Images were analyzed using Image-Pro Plus (Mediacybernetics) software version 5.1.0.20.

Assay [3] relates to primary rat cortical neurons. Nature of the assay: MPR sorting / colocalization analysis (Golph4, LAMP2, EEA1) in primary neurons. It is filed as cell-based. Conditions: in the context of LRRK2 G2019S expression. The text has this: A cellular role for the LRRK2-RAB7L1 pathway was investigated. Prior studies have broadly implicated both of these gene products in intracellular sorting (Sakaguchi-Nakashima et al., 2007; Spano et al., 2011). Expression of the LRRK2 G2019S clinical mutation in rat primary neurons induced lysosomal swelling, as quantified by immunostaining for the lyosomal marker LAMP2 or using the lysosomotropic dye Lysotracker, consistent with prior work and other studies (Dodson et al., 2012; MacLeod et al., 2006; Stafa et al., 2012) (FIG. 6A). In addition to lysosomal enlargement, there was significant reduction in lysosomal accumulation of the cation-independent mannose 6-phosphate receptor (MPR) in terms of the fraction of LAMP2-positive structures stained with MPR. As MPR is required also for the recruitment of lysosomal hydrolases, its deficiency is predicted to lead to functional lysosomal deficits.
MPR is typically recycled between the endolysosome compartment and the Golgi apparatus by the retromer complex (Arighi et al., 2004; Bonifacino and Hurley, 2008; Seaman, 2009; St. George-Hyslop et al., 2009). […]
Primary rat cortical neurons were cultured on glass coverslips, transfected, and fixed as previously described in this methods section. […] Images were analysed using NIH ImageJ software version 1.45.

The target in assay [4] is T1, human wild-type LRRK2 (BAC transgene, mouse brain) (human, UniProt Q5S007 1-2527).
T1 construct: Untagged human LRRK2 expressed from a BAC construct in transgenic mice; It was immunoprecipitated from whole brain lysate with an anti-LRRK2 antibody; The lysate also holds endogenous mouse LRRK2; also called LRRK2 wild type transgenic (WT); LRRK2-WT
Nature of the assay: immunoprecipitation of LRRK2 with a rabbit monoclonal antibody from transgenic mouse brain lysates, Western blot for RAB7L1. (In general: In western blotting, separated proteins are transferred to a membrane and probed.)

In a further assay the target is T2, LRRK2 (Homo sapiens, UniProt Q5S007).
T2 construct: Plasmids encoding full-length human LRRK2 (wild-type, G2019S, K1906M) tagged with 3×FLAG at the N-terminus were used; expressed in transfected cells; host or cells: HEK293T
Kind of assay: Co-immunoprecipitation of LRRK2 and RAB7L1 from transfected HEK293T cells. The note with it: HEK293T lysates, 3×Flag-LRRK2 and GFP-RAB7L1, 48 hrs. It is filed as binding. The procedure: Next more direct evidence of a physical interaction between LRRK2 and RAB7L1 was sought and thus co-immunoprecipitation studies were performed. Epitope-tagged forms of LRRK2 and RAB7L1 (3×Flag-LRRK2 and GFP-RAB7L1) were co-transfected into HEK293T cells, and after 48 hrs, cell lysates were immunoprecipitated with an anti-Flag antibody and then probed for RAB7L1. […] Similarly, immunoprecipitation of RAB7L1 with an antibody to the GFP tag co-precipitated LRRK2 only in the presence of RAB7L1-GFP (FIG. 3B). To probe for an interaction between LRRK2 and RAB7L1 in a more physiological context, RAB7L1 protein was examined in brain lysates from transgenic mice that harbor human wild-type LRRK2 or a familial PD mutant form of LRRK2, R1441C, within a large bacterial artificial chromosome (BAC) construct. Transgenic LRRK2 is broadly expressed throughout the CNS of these mice, although at relatively low levels (FIG. 10A). Brain tissue lysates were immunoprecipitated for LRRK2 protein with a rabbit monoclonal antibody.
For cultured cells, HEK293T cells transfected for 48 hours were lysed with lysis buffer containing 0.5% Triton-X. 1 mM EDTA and protease inhibitor cocktail (Sigma). The lysates were rotated at 4° C. for 1 hr followed by centrifugation at 20,000 g for 5 min. […]

T1 sequence (Q5S007 whole entry R50H): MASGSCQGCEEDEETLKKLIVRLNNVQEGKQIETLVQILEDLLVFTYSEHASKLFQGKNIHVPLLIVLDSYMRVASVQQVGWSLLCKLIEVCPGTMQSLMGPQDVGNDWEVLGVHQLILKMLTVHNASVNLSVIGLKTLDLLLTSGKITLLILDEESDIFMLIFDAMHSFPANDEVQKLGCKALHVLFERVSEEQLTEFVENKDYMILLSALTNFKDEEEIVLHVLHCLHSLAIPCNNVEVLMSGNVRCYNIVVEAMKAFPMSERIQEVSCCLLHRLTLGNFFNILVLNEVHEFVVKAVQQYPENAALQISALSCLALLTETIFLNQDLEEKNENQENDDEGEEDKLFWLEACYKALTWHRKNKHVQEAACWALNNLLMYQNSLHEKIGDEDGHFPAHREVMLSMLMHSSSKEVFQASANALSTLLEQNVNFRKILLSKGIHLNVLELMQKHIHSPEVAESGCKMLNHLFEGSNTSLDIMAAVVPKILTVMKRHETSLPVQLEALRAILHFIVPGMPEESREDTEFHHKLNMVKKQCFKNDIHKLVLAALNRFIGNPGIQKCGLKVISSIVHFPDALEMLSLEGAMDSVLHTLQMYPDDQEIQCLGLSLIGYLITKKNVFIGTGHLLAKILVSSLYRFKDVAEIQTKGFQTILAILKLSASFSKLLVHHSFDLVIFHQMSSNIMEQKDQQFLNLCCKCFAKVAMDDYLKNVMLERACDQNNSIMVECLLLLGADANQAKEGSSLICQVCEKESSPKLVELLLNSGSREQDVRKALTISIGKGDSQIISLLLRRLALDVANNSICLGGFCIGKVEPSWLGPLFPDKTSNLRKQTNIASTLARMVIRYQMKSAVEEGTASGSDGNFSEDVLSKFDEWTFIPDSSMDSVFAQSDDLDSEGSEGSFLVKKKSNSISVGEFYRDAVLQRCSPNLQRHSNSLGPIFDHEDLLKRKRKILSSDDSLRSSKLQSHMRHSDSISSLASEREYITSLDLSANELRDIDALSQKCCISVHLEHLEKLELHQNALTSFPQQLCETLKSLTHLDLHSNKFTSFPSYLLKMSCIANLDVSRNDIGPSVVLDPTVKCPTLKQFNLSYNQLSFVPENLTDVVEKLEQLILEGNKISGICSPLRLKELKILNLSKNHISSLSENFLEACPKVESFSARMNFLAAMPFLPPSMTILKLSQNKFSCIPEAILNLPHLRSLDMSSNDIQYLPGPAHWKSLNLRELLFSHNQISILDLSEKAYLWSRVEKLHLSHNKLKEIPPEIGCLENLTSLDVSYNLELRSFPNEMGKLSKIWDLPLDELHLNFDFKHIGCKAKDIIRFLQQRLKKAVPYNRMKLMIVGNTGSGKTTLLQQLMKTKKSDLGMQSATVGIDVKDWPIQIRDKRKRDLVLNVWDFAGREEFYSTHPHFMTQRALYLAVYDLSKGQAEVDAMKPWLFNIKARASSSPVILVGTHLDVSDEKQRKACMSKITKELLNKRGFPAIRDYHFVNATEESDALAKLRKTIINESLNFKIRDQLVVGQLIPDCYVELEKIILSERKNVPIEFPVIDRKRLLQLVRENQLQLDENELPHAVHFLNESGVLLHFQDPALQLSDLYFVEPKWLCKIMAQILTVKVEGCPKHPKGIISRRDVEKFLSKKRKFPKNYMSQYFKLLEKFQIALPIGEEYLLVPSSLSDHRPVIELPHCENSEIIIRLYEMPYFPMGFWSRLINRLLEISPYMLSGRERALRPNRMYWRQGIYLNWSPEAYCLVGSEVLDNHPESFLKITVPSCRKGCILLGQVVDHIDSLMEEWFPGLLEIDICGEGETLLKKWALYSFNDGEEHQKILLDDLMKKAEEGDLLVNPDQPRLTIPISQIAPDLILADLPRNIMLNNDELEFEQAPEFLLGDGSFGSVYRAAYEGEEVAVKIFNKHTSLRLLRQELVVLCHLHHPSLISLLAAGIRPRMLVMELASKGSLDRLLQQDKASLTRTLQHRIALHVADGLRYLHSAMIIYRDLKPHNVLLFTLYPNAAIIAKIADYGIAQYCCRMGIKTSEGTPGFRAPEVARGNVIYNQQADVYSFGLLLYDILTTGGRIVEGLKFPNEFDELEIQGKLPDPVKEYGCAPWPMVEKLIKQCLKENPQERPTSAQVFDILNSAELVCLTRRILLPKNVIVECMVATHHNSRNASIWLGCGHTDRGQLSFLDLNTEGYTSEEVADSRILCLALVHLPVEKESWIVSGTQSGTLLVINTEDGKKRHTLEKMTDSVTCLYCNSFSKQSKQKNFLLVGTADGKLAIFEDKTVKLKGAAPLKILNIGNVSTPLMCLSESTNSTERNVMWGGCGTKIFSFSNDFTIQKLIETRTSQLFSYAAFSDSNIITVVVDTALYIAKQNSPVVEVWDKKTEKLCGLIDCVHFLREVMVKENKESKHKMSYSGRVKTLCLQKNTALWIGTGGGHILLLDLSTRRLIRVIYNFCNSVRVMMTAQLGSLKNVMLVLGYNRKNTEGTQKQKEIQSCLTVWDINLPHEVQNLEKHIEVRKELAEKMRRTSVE

B1: CA RAB7L1: constitutively active RAB7L1 (Q67L, deficient in GTPase activity); in b298 the same words denote the fly transgene (protein, UniProt O14966 1-203, looked up, variant Q67L)
Ras-related protein Rab-7L1: MGSRDHLFKVLVVGDAAVGKTSLVQRYSQDSFSKHYKSTVGVDFALKVLQWSDYEIVRLQLWDIAGLERFTSMTRLYYRDASACVIMFDVTNATTFSNSQRWKQDLDSKLTLPNGEPVPCLLLANKCDLSPWAVSRDQIDRFSKENGFTGWTETSVKENKNINEAMRVLIEKMMRNSTEDIMSLSTQGDYINLQTKSSSWSCC
In the case of B1, the “LRRK2 G2019S dopamine neuron loss phenotype” value in assay [1] is reported as “rescued the LRRK2 G2019S dopamine neuron loss phenotype”. Moreover, in assay [2], the “LRRK2 mutation-induced neurite length phenotype” value was “significantly suppressed”.

B2: RAB7L1 protein in mouse brain lysate (endogenous) (enzyme, UniProt Q91YQ1 1-204, looked up)
chain: MGSRDHLFKVLVVGDAAVGKTSLVQRYSQDSFSKHYKSTVGVDFALKVLQWSDSEMVRLQLWDIAGQERFTSMTRLYYRDASACVIMFDVTNATTFSNSQRWKQDLDSKLTLPSGEPVPCLLLANKSDLSPWAVSRDQIDRFSKENGFTGWTETSVKENKNINEAMRVLVEKMMNNSREDVMSLSTQGNYINLQAKPSSGWTCC
notes: Detected by Western blot (Santa Cruz sc-81924) after LRRK2 immunoprecipitation
Regarding B2, the “lysosomal phenotypes (swollen lysosomes, reduced lysosomal MPR)” value in assay [3] was “suppressed the lysosomal phenotypes”. For the same molecule, the binding result in assay [4] is reported as “binds”. Moreover, the “LRRK2 mutation-induced neurite length phenotype” value in assay [2] is “significantly suppressed the LRRK2 mutation-induced neurite length phenotype”. Also, the reduced neurite length entry in assay [2] (in the context of VPS35 knockdown by shRNA) was “not rescued”. The neurite length result in assay [2] (in the context of overexpression of wild-type LRRK2) is recorded as “did not modify neurite length”. Besides, the “co-immunoprecipitation with LRRK2” value with LRRK2 was “effectively co-precipitated”.
